pKd: −log10 of the molar value. Values joined by “and” are separate entries in the source; they are usually repeats but may differ in a detail not shown here. Equal entries are not always repeated. Where two headings read alike, the source gives them in different places.
Tests used:
[1] = molecular target: rabbit muscle G-actin (actin monomers; ATP-G-actin or ADP-G-actin) (rabbit) (UniProt P68135); assay: shift of the apparent critical concentration of pyrene-actin
[2] = molecular target: rabbit muscle G-actin (actin monomers; ATP-G-actin or ADP-G-actin) (rabbit) (UniProt P68135); assay: as above; remark: listed apart in the source

Row | Substance | pKd [1] | pKd [2]
1 | MBP-CAS-2N (N-terminal half of CAS-2, residues 1-207, fused to maltose-binding protein) (domain or fragment) | 5.54 and 6.08 | –
2 | MBP-CAS-2C (C-terminal half of CAS-2, residues 208-457, fused to maltose-binding protein) (domain or fragment) | 5.77 and 5.54 | 6.00 and 6.02
3 | MBP-CAS-2 (full-length CAS-2, cyclase-associated protein-2, fused to maltose-binding protein) (natural protein) | 6.08 | –
4 | MBP-CAS-2CΔWH2 (C-terminal half of CAS-2 lacking WH2, residues 275-457, fused to maltose-binding protein) (domain or fragment) | 5.77 and 5.92 | 5.44 and 5.54

Source: article PMC4086254
